The target of experiment [1] is T1, recombinant human caspase-3 (human) (UniProt P42574).
T1 sequence: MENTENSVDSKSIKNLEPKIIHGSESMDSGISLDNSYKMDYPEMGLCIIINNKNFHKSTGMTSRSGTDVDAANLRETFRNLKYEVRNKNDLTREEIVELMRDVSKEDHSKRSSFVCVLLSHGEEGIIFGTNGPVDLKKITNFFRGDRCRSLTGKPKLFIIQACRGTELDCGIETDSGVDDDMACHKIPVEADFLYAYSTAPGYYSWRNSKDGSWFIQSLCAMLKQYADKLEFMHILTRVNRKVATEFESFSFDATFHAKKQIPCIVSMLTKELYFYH

Experiment [2] deals with T2, recombinant human caspase-6 (human) (UniProt P55212).
T2 sequence: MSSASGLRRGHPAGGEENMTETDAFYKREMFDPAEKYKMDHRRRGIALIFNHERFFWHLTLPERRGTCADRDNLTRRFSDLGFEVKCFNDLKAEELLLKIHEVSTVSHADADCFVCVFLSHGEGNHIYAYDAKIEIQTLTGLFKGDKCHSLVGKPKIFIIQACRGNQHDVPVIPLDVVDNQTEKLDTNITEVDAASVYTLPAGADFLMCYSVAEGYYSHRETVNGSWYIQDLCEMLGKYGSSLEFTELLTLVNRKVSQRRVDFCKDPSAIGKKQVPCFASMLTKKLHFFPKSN

Experiment [3] concerns the target T3, recombinant human caspase-7 (human) (UniProt P55210).
T3 sequence: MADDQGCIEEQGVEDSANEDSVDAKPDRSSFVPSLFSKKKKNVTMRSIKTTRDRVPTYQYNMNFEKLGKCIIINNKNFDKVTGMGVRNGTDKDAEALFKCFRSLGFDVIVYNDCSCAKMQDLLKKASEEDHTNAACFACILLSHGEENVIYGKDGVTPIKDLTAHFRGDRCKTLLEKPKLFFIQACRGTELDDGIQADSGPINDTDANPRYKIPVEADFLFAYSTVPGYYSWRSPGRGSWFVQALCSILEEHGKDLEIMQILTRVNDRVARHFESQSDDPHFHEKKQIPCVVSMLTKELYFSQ

The target in experiment [4] is recombinant human caspase-9 (human) (UniProt P55211).

The values that follow come from article PMC3540084.

UniProt P55211, sequence (P55211 whole entry): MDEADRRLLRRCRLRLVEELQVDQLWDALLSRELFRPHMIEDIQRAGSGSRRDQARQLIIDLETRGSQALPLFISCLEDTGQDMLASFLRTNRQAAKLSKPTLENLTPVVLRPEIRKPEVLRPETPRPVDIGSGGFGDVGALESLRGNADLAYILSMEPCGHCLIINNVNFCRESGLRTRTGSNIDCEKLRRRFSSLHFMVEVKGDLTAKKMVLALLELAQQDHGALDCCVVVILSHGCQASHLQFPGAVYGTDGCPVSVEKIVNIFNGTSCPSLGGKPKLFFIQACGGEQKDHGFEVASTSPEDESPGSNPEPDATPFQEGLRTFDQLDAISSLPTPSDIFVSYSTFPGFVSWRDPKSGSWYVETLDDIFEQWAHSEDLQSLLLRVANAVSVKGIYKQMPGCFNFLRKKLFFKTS

With “recombinant human IL-1Ra (from UniProt P18510 26-177) (natural protein)”, the i 0,5 of inhibition of rh-caspase-3 activity (release of AMC from Ac-DEVD-AMC, substrate at Km concentration, 22°C) in experiment [1] is 2.5 µM. Moreover, the i 0,5 of inhibition of rh-caspase-6 activity (release of AMC from Ac-DEVD-AMC, substrate at Km concentration, 22°C) in experiment [2] came to 2.2 µM. For the same substance, in experiment [3], the i 0,5 of inhibition of rh-caspase-7 activity (release of AMC from Ac-DEVD-AMC, substrate at Km concentration, 22°C) amounted to 1.3 µM. Moreover, in experiment [4], the i 0,5 of inhibition of rh-caspase-9 activity (release of AMC from Ac-LEHD-AMC, substrate at Km concentration, 22°C) is 0.31 µM and the percent inhibition of rh-caspase-9 activity by 100 nM IL-1Ra stood at 41%.
